For the data set, the target named is T1, E.r. maturase (MarathonRT) WT (Eubacterium rectale).
T1 chain: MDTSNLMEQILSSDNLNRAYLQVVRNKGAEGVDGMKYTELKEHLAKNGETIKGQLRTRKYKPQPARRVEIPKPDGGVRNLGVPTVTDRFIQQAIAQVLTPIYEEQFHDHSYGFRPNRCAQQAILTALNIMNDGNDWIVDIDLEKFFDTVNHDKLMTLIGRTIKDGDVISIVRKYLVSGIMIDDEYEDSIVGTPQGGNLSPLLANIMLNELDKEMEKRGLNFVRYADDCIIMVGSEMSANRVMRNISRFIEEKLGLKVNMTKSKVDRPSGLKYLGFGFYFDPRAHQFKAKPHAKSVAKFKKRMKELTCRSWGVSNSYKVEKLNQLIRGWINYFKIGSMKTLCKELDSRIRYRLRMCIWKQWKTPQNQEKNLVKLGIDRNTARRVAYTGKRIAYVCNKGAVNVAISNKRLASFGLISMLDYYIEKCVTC
The data set is described as follows: indirect: D4A at 16:1 raises primer incorporation on RepA D3 from 84.1% to 93.0%; Tris pH 8.3, 200 mM KCl, 2 mM MgCl2, 0.6 M trehalose. The settings on record: tags: N-terminal 6xHis-SUMO, cleaved; hairpin. From the text: The surface of E.r. maturase is enriched with positively charged amino acids, to which primers used for reverse transcription non-specifically binds, and thus the efficiency of primer utilization is compromised. To reduce the non-specific binding, D4A helix (FIG. 12A, originated from E.r. Group II intron) was used in the reaction buffer to block the positively charged residues on the surface of E.r. maturase, attempting to further improve the performance of E.r. maturase in the already optimized buffer (50 mM Tris pH 8.3, 200 mM KCl, 2 mM MgCl₂, 5 mM DTT and 0.6 M trehalose).

B1: D4A helix of E.r. group II intron (ssRNA)
RNA: GUCUCGUAUUGCAGAAAUGACAACAUCUGCCGUAACCAAUCGGGUAAAAGGUGGUCAAAUCAAGCGAGAC
As for B1, the binding result is reported as “binds”.

These data come from patent publication US20210155910, “IMPROVED REVERSE TRANSCRIPTASE AND METHODS OF USE” (YALE UNIVERSITY, published 2021).
